Source: article PMC11429998 (bioRxiv, 2024)

B1: PseCAST TniQ (natural protein)
chain: MAFLFSPKIGPFFDESLESYLLRVVSENFFDSYEGLSLAIREELHELDFEAHGAFPIDLKRLNVYHAKHNSHFRMRALGLLETLLDLPRYELQKLALLKSDIKFNSSAALYKGGVDIPQRFICYHTEEAVDSIPVCPQCLAEEAYIKQSWHIKWVNACAKHQCTLVHKCPECCAPINYIENESITHCSCGFELSCGSTSPVNTLSIDHLNKLLNKSELDDNNPLFKNTTLTERFAALLWYQERYSKEETFCLDDVVNYFNGWPVVFYKELDELSKNAAMKLIDLFNKTEFKFIFGNAILSCPNTQKQREPHFIYSTLLDYLATLVESNPKTKKPNVADLLVSVLEAATLLSISIEQVYRLYQDGILQTAFRHKMNQRINPYKGVFFLRHVIEYKTSFGNDKARMYLSAW

Key:
[1] = biological target: PseCAST Cas7 (Pseudoalteromonas); assay: cryo-EM structure
cryo-EM structure = biological target: the molecule itself; assay: cryo-EM structure

Molecule | stoichiometry N [1] | stoichiometry N (cryo-EM structure)
PseCAST Cas7 (natural protein) | 6 | 
B1 |  | 2
